We go through one molecule from paper PMC8558294, “Defects in the STIM1 SOARα2 domain affect multiple steps in the CRAC channel activation cascade” (Cellular and Molecular Life Sciences: CMLS, 2021).

In the test the target is Orai1 V102A (human, UniProt Q96D31-1 1-301, V102A). Kind of test: cell-based or functional assay.
Sequence of Orai1 V102A (Q96D31 whole entry V102A): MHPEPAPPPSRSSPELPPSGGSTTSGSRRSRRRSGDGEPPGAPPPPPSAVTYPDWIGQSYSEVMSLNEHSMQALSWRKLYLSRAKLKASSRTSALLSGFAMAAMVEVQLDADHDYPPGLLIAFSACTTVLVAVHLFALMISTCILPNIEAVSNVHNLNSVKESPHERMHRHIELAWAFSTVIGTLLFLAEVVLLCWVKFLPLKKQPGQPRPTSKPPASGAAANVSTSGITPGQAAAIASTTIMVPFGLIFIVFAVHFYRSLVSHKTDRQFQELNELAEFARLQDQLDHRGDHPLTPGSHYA

B1: STIM1 Δα2 (STIM1 Δ393-398), CFP/YFP-labeled (natural protein, human, UniProt Q13586-1 23-685, looked up)
chain: LSHSHSEKATGTSSGANSEESTAAEFCRIDKPLCHSEDEKLSFEAVRNIHKLMDDDANGDVDVEESDEFLREDLNYHDPTVKHSTFHGEDKLISVEDLWKAWKSSEVYNWTVDEVVQWLITYVELPQYEETFRKLQLSGHAMPRLAVTNTTMTGTVLKMTDRSHRQKLQLKALDTVLFGPPLLTRHNHLKDFMLVVSIVIGVGGCWFAYIQNRYSKEHMKKMMKDLEGLHRAEQSLHDLQERLHKAQEEHRTVEVEKVHLEKKLRDEINLAKQEAQRLKELREGTENERSRQKYAEEELEQVREALRKAEKELESHSSWYAPEALQKWLQLTHEVEVQYYNIKKQNAEKQLLVAKEGAEKIKKKRNTLFGSSSLDDVDHKILTAKQALSEVTAALRERLHRWQQIEILCGFQIVNNPGIHSLVAALNIDPSWMGSTRPNPAHFIMTDDVDDMDEEIVSPLSMQSPSLQSSVRQRLTEPQHGLGSQRDLTHSDSESSLHMSDRQRVAPKPPQMSRAADEALNAMTSNGSHRLIEGVHPGSLVEKLPDSPALAKKALLALNHGLDKAHSLMELSPSAPPGGSPHLDSSRSHSPSSPDPDTPSPVGDSRALQASRNTRIPHLAGKKAVAEEDNGSIGEETDSSPGRKKFPLKIFKKPLKK
Regarding B1, the “Vrev [mV] of Orai1 V102A currents, whole-cell patch clamp in HEK293 cells” value amounted to 31.6 mV.
